Assay results taken from the DeepSol protein solubility set.

Assay: soluble on expression in E. coli; label from the status in PepcDB or PDB records

Sequence | soluble on expression in E. coli
MVYDLIVIGGGSGGMAAARRAARHNAKVALVEKSRLGGTCVNVGCVPKKIMFNAASVHDILENSRHYGFDTKFSFNLPLLVERRDKYIQRLNNIYRQNLSKDKVDLYEGTASFLSENRILIKGTKDNNNKDNGPLNEEILEGRNILIAVGNKPVFPPVKGIENTISSDEFFNIKESKKIGIVGSGYIAVELINVIKRLGIDSYIFARGNRILRKFDESVINVLENDMKKNNINIVTFADVVEIKKVSDKNLSIHLSDGRIYEHFDHVIYCVGRSPDTENLKLEKLNVETNNNYIVVDENQRTSVNNIYAVGDCCMVKKSKEIEDLNLLKLYNEERYLNKKENVTEDIFYNVQLTPVAINAGRLLADRLFLKKTRKTNYKLIPTVIFSHPPIGTIGLSEEAAIQIYGKENVKIYESKFTNLFFSVYDIEPELKEKTYLKLVCVGKDELIKGLHIIGLNADEIVQGFAVALKMNATKKDFDETIPIHPTAAEEFLTLQPWMK | soluble
MTDNITDEAIIDKAQELHDKAYDKAVYERDEANGVHANQNNPEVLIFNDGPTDDEIREKLSWVVDRFRETLKPFPRDFDPLIDKIKAIEAAFGQEEDSFGDPDLGMIETSANYMAQWEGALSTNFNEKFLGPMPIIAANHGKLASYLRDHAEKMKSIYESGRQDALNIAEKGVEAIDAINDSNGKDLMIALAVLIAAGTLAGPALGVASAPLAVQLANAAVIAGSVLGGPFVEKGEEVPLGGDTVEEVMNNVRDALDASAKRIFEEEGYLLDALKKSEEEVFPQTSGNTDDHTALLPQQPKVFTATGEELTAGLVQFGSEDGTDGGGGDRGSYVGDDPPDNFEGSVFVPPEKKTATG | not soluble
MSLGELFAVFNEKLTIPEQEALMFLYAYMPTGDVTDYTGDYYLENVRLSDQARREMPWGKEIPDDVFRHFVLPIRVNNENLDDSRRVFYNELKDRVKNLSLHDAVLEVNHWCHEKVIYTPSDARTSAPLASVKTAYGRCGEESTFTVAALRSVGIPARQVYTPRWAHTDDNHAWVEAWVDGKWYFFGACEPEPVLNLGWFNAPASRGMLMHTKVFGRYTGQEEIMYETPNYTEINVIDNYAPTAKGSVLVTDAEGQPVADATVEFKVYNYAEFYTVATKHTDRSGHASLTAGKGDMLVWASKDGRFGYSKLSFGKDNELKITLDKNASETYSLPLDIVPPAEGEGHHHHHH | not soluble
VTGAIDPNLFTDAVLQVAAAAGRDETLPMLTGIHMEIDGENVTLTATDRFRLALRRFTWSPANPEAKAKLLIPAKNLSDNARSLDSGSTEPVEIAVGTGENIGAEGLFGIHIDNRQTTTRMLDADFPNVSPLL | not soluble
MRTQNDLDRRLRSFGGRDGQMTTLSVRRLPVENGISGWEAISKRSKPVRRLEGDVTADWLIIGAGFAGLSAARRLTQLHPGETIVVLDASEVGKGTSGRNSGFMIDVPHNLASSEYSSGAIDATRLEMEQNRSAIAFAAAAAEDYGMSRQTFDPAGKINAAATRRGMTLNQNFAASLKNAGEKHTLLDAAQMRALTGSDYYLGGLYTPGAVLIQPADYIREFAAGLSPKVDIFENSPVTALRRENRAWKATTPSGSVTAPKVILGVNGHVDDFGHFRGRLIHIFAYASMTAPFAARDYGSRVSGQDKWALLPADAMGATVRKITSDGQSRIAIRTRYTYETTLDLTKHQLSKMVRAHRRSLDDRFPGLGGIPFEYSWSGRICLSLNHVPAFGEIEEGLFSACCENGLGTVKSTLAGMMAAELATGTTSRHLEQYMDHPAPSRLPPEPFAWLGINSVIRLQELRAGREGLEHHHHHH | not soluble
MGSDKIHHHHHHMRSIVQNKVEECLEILKWDKTKWIDFWRELRRKFGPIVPNYERKLELNDEKIEKILREIERRELDRFKWDWLDVSRNKKIECAESLSEREDFLDLKREDFSVFLMSLLGLSDWVVVDGEKEKIVVMDVFSLWRKGLLRELSLATLHAVIEFRKGKEIGNYGGKKEYFDSLLKEIEKILKRGKEALGDLCEFLRNHVSYYDWVGFYFVEDGKLKLGPFVGEPTEHVEIPFGVGICGQAAEREETFVVQDVSKETNYLSCSPKTKAEIVVPIFKDGKIIGELDIDSYSPSPFSEEDRAFLEKVCELVSKVV | not soluble
MGSDKIHHHHHHMILKTNLFGHTYQFKSITDVLAKANEEKSGDRLAGVAAESAEERVAAKVVLSKMTLGDLRNNPVVPYETDEVTRIIQDQVNDRIHDSIKNWTVEELREWILDHKTTDADIKRVARGLTSEIIAAVTKLMSNLDLIYGAKKIRVIAHANTTIGLPGTFSARLQPNHPTDDPDGILASLMEGLTYGIGDAVIGLNPVDDSTDSVVRLLNKFEEFRSKWDVPTQTCVLAHVKTQMEAMRRGAPTGLVFQSIAGSEKGNTAFGFDGATIEEARQLALQSGAATGPNVMYFETGQGSELSSDAHFGVDQVTMEARCYGFAKKFDPFLVNTVVGFIGPEYLYDSKQVIRAGLEDHFMGKLTGISMGCDVCYTNHMKADQNDVENLSVLLTAAGCNFIMGIPHGDDVMLNYQTTGYHETATLRELFGLKPIKEFDQWMEKMGFSENGKLTSRAGDASIFLK | not soluble
MGSDKIHHHHHHMNSHWSEYWQQGHTTSFGEALSGNYEGVLKNVWEPVFDGLTENFLVVDVGTGNGSLPLLLRDGLSKVDLTGKVIGVDLAEVTLANSVSNNNQNIDIALMSNTRCEQLPFESNSVDLYISQFGFEYSNIEQSLEEATRVLKDDGQFVIVCHHNRSMILNRNRRILTLIDKDEVNLLINCLGKMANAMGNVSNQEDVERIKKDLQCEQIRAEINDLIKLLVMFDEAAAQDCDLMRFVAQFFKAGLFWPVTKKLEFIEFITIQMDTLKLRLTELVNAAFDETKLATFIAKFHQNNMVLNELKVLKNEQNEVLGWYLHGSKFI | not soluble
MKFLPYIFLLCCGLWSTISFADEDYIEYRGISSNNRVTLDPLRLSNKELRWLASKKNLVIAVHKSQTATLLHTDSQQRVRGINADYLNLLKRALNIKLTLREYADHQKAMDALAEGEVDIVLSHLVTSPPLNNDIAATKPLIITFPALVTTLHDSMRPLTSPKPVNIARVANYPPDEVIHQSFPKATIISFTNLYQALASVSAGHNDYFIGSNIITSSMISRYFTHSLNVVKYYNSPRQYNFFLTRKESVILNEVLNRFVDALTNEVRYEVSQNWLDTGNLAFLNKPLELTEHEKQWIKQHPNLKVLENPYSPPYSMTDENGSVRGVMGDILNIITLQTGLNFSPITVSHNIHAGTQLSPGGWDIIPGAIYSEDRENNVLFAEAFITTPYVFVMQKAPDSEQTLKKGMKVAIPYYYELHSQLKEMYPEVEWIQVDNASAAFHKVKEGELDALVATQLNSRYMIDHYYPNELYHFLIPGVPNASLSFAFPRGEPELKDIINKALNAIPPSEVLRLTEKWIKMPNVTIDTWDLYSEQFYIVTTLSVLLVGSSLLWGFYLLRSVRRRKVIQGDLENQISFRKALSDSLPNPTYVVNWQGNVISHNSAFEHYFTADYYKNAMLPLENSDSPFKDVFSNAHEVTAETKENRTIYTQVFEIDNGIEKRCINHWHTLCNLPASDNAVYICGWQDITETRDLINALEVEKNKAIKATVAKSQFLATMSHEIRTPISSIMGFLELLSGSGLSKEQRVEAISLAYATGQSLLGLIGEILDVDKIESGNYQLQPQWVDIPTLVQNTCHSFGAIAASKSIALSCSSTFPEHYLVKIDPQAFKQVLSNLLSNALKFTTEGAVKITTSLGHIDDNHAVIKMTIMDSGSGLSQEEQQQLFKRYSQTSAGRQQTGSGLGLMICKELIKNMQGDLSLESHPGIGTTFTITIPVEISQQVATVEAKAEQPITLPEKLSILIADDHPTNRLLLKRQLNLLGYDVDEATDGVQALHKVSMQHYDLLITDVNMPNMDGFELTRKLREQNSSLPIWGLTANAQANEREKGLSCGMNLCLFKPLTLDVLKTHLSQLHQVAHIAPQYRHLDIEALKNNTANDLQLMQEILMTFQHETHKDLPAAFQALEAGDNRTFHQCIHRIHGAANILNLQKLINISHQLEITPVSDDSKPEILQLLNSVKEHIAELDQEIAVFCQKND | not soluble
MALLEICCYSMECALTAQRNGADRIELCAAPKEGGLTPSFGVLRSVREHITIPVHPIIRPRGGDFYYTDGEFAAMLEDIRLVRELGFPGLVTGVLTVDGDVDMSRMEKIMAAAGPLAVTFHRAFDMCANPFNALKNLADAGVARVLTSGQKADAAQGLSIIMELIAQGDAPTIMAGAGVRANNLQNFLDAGVREVHSSAGVLLPSPMRYRNQGLSMSADIQADEYSRYRVEGAAVAEMKGIIVRHQAK | not soluble
MQTSFCVLVSIIERMPTWNDIKVRNPQHSHNYAKRWENLEAEGNDINGEARLIDALVQRGSKILDAGCGQGRVGGYLSARGHIVTGIDIDDYLISEAEKKFPSATWHVGDLGSESIPDQGFDIAVCAGNVITFIEPDKQEAALAHIFEALRPNGRCIIGFGAGRGYVFPQFFEDARNVGFVIENNFESWGLNPLTNRSQFLVAFLRKPELEHHHHHH | not soluble
